What was measured:
[1] = target: T1, human SIRPa v2 expressed by blood monocytes (V2/V2 donors) (human, UniProt P78324 31-504); assay: FACS competition on human monocytes of V2/V2 donors; blocked ligand: biotinylated CD47Fc, revealed with streptavidin-PE
T1 construct: also called variant 2; V2 protein
Procedure: (§1) METHOD: Human monocytes (purified by elutriation from human PBMC at DTC platform, Nantes, and frozen in DMSO at 10M/ml at −80° C. or liquid nitrogen) were thawed in 40 mL complete RPMI medium. Then immediately centrifuged at 1000 rpm during 10 minCells are resuspended in 10 mL of RPMI medium and counted on Malassez cell. Frozen human monocytes are thawed, diluted samples are added and biotinylated CD47Fc is added afterwards. […] The following protocol was applied: —Put 100,000 human monocytes per well on V-bottom P96 plate; —Centrifuge 1 min at 2500 rpm and empty wells by flicking the plate; —Wash cells 2 times with 200 μL PSE (Centrifuge 1 min at 2500 rpm and empty wells); —Prepare 8 dilutions of the sample beginning with 10 μg/mL (concentrated 2×, final concentration 5 μg/mL) and diluting by steps of 3; —Add 12.5 μL of sample/well on cells and mix; —Incubate 15 min on ice; —Prepare CD47Fc biotinylated solution concentrated 2×, determined in function of paragraph and add 12.5 μL of this solution/well on cells and mix.—Incubate 30 min on ice; —Add 175 μL PSE/w-Centrifuge 1 min at 2500 rpm and empty wells; —Wash cells 2 times with 200 μL PSE (Centrifuge 1 min at 2500 rpm and empty wells). An intermediate concentration is chosen for CD47Fc biotinylated. Here, 5 μg/mL CD47Fc biotinylated are took for the antagonist test. […]

[2] = target: T2, SIRPa V3 (SNP1 + 2 + 3 + 4 + 5 + 6) recombinant protein, extracellular domain fused with mouse Fc from IgG2a (human; mouse, UniProt P78324 31-373); assay: ELISA on immobilised SIRPa variant-mouse Fc, donkey anti-human IgG peroxidase, TMB 450 nm; given as ED50
T2 construct: SNP3 (51 A) is silent; not shown: mouse Fc from IgG2a
T2 chain: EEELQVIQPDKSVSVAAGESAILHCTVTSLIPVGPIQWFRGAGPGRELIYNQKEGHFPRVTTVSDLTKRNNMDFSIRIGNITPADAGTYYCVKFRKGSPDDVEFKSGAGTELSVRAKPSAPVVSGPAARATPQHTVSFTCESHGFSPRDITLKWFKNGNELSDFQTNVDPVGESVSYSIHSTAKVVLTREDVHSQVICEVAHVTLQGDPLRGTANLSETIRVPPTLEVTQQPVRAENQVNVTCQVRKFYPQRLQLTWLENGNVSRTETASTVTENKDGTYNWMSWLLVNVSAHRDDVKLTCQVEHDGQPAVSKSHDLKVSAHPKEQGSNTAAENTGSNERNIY
Procedure: (§2) FIG. 4. SIRPa variants binding study using anti-human SIRPa v1 antibody and Kwar antibody by Elisa. Assessment of the binding by ELISA on immobilized SIRPa mutated variants (SIRPa from v1 to v8, see Table 2 in example 1) linked to the mouse Fc domain. Anti-human SIRPa v1 antibody and Kwar antibody (known to bind both SIRPa v1 and SIRPa v2) were compared for their ability to bind the different SIRPa mutated variants.
(§3) Method: The binding activity of the anti-SIRPa antibodies was assessed by ELISA. For the ELISA assay, the in-house anti-human SIRPa v1 antibody and Kwar antibody were tested on 8 different mutated hSIRPa (SIRPA v1 to v8; see table 2). The different variants of mutated hSIRPa (SIRPa v1 to v8) were immobilized on plastic at 0.5 μg/ml in carbonate buffer (pH9.2) and the purified antibody was added to measure binding.

[3] = target: T3, SIRPa V7 (SNP14 + ?) recombinant protein, extracellular domain fused with mouse Fc from IgG2a (human; mouse, UniProt P78324 31-373); assay: as above
T3 construct: not shown: mouse Fc from IgG2a
Procedure: as §2, §3

[4] = target: T4, SIRPa V4 (SNP8) recombinant protein, extracellular domain fused with mouse Fc from IgG2a (human; mouse, UniProt P78324 31-373); assay: as above
T4 construct: not shown: mouse Fc from IgG2a
Procedure: as §2, §3

[5] = target: T5, SIRPa V5 (SNP9 + 10 + 11) recombinant protein, extracellular domain fused with mouse Fc from IgG2a (human; mouse, UniProt P78324 31-373); assay: as above
T5 construct: SNP11 (97 T) is silent; not shown: mouse Fc from IgG2a
Procedure: as §2, §3

[6] = target: T6, SIRPa V1 recombinant protein (extracellular domain fused with mouse Fc from IgG2a) (human; mouse, UniProt P78324 31-373); assay: as above
T6 construct: not shown: mouse Fc from IgG2a
Procedure: as §2, §3

[7] = target: T7, SIRPa V6 (SNP12 + 13) recombinant protein, extracellular domain fused with mouse Fc from IgG2a (human; mouse, UniProt P78324 31-373); assay: as above
T7 construct: SNP13 is printed as 101 N without a change; not shown: mouse Fc from IgG2a
Procedure: as §2, §3

[8] = target: T8, human SIRPa v1 expressed by blood monocytes or monocyte-derived cells (V1/V1 donors) (human, UniProt P78324 31-504); assay: FACS competition on human monocytes of V1/V1 donors; blocked ligand: biotinylated CD47Fc, revealed with streptavidin-PE
T8 construct: donors were typed on exon 3; also called variant 1
Procedure: as §1

T8 sequence (P78324 31-504 limits assumed): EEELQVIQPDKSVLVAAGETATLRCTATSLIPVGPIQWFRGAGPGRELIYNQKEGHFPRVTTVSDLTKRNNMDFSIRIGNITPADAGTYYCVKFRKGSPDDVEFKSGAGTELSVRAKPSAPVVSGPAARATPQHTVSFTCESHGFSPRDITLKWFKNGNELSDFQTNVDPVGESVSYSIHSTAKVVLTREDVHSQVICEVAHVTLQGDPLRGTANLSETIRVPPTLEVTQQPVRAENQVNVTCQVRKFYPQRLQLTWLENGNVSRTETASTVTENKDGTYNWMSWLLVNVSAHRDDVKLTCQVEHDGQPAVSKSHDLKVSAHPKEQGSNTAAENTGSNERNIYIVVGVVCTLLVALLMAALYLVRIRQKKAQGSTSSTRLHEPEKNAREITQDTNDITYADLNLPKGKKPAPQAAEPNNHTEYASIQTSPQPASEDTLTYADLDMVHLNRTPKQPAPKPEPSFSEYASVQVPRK

IC50 (read off the curve) [1]: ~200 ng/mL
EC50 [2]: 0.99 ng/mL
EC50 [3]: 0.54 ng/mL
EC50 [4]: 0.71 ng/mL
EC50 [5]: 0.63 ng/mL
EC50 [6]: 0.78 ng/mL
EC50 [7]: 0.72 ng/mL
IC50 (read off the curve) [8]: ~90 ng/mL
B1: in-house anti-human SIRPa v1 antibody (antibody, human IgG4, V domains shown)
VH: EVQLVQSGAEVKKPGESLRISCKASGYSFTSYWVHWVRQMPGKGLEWMGNIDPSDSDTHYSPSFQGHVTLSVDKSISTAYLQLSSLKASDTAMYYCVRGGTGTLAYFAYWGQGTLVTVSS
VL: DVVMTQSPLSLPVTLGQPASISCRSSQSLVHSYGNTYLYWFQQRPGQSPRLLIYRVSNRFSGVPDRFSGSGSGTDFTLKISRVEAEDVGVYYCFQGTHVPYTFGGGTKVEIK
notes: also called in-house anti-SIRPa v1 antibody; in-house antibody
